For experiment [1], the target named is TNF receptors on WEHI-164 cells (mouse). Kind of experiment: radioreceptor assay, cold TNF 1 ng/tube.
Experiment [2] shares this target. Kind of experiment: radioreceptor assay, cold TNF 5,000 ng/tube.
Experiment [3] shares this target. Kind of experiment: radioreceptor assay, cold TNF 10 ng/tube.
Experiment [4] has the same target. Kind of experiment: radioreceptor assay, cold TNF 1,000 ng/tube.
The target is the same in experiment [5]. The experiment is described as follows: radioreceptor assay, cold TNF 10,000 ng/tube.
For experiment [6] the target is unchanged. Kind of experiment: radioreceptor assay, cold TNF 100 ng/tube.
Experiment [7] shares this target. The experiment is described as follows: radioreceptor assay, cold TNF 500 ng/tube.
The target is the same in experiment [8]. Kind of experiment: radioreceptor assay, cold TNF 0 ng/tube.

Sequence of TNF receptors on WEHI-164 cells (mouse) (P25118 30-454): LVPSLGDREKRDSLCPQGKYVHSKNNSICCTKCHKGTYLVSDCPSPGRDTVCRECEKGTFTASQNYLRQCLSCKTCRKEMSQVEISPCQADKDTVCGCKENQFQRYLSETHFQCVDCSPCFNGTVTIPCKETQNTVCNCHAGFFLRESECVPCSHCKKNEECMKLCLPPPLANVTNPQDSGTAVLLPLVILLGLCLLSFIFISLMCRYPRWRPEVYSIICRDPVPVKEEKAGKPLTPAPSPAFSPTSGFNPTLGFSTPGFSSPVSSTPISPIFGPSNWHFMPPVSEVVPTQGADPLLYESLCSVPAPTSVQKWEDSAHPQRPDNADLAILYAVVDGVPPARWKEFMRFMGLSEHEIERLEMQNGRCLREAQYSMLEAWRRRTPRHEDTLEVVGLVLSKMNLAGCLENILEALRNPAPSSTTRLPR

Turning to “human recombinant TNF alpha (from UniProt P01375 1-233) (ligand)”, the % SPECIFIC BINDING (of 125I TNF to WEHI-164 cells) was 108% in experiment [1]; 0% in experiment [2]; 64% in experiment [3]; 0% in experiment [4]; 0% in experiment [5]; 11% in experiment [6]. Also, the % SPECIFIC BINDING (of 125I TNF to WEHI-164 cells) was 10% in experiment [7] and 100% in experiment [8].
